“Also recorded” adds a separate entry of the source.
Assays:
[1] = tested on: pro-inflammatory cytokines and inflammatory regulators in rat vitreous; experiment: Cytokine analysis of rat vitreous 14 days after uveitis induction (Milliplex bead panel); format: in vivo, Male Lewis rats; conditions: rat eyes 14 days after uveitis induction; ITV triamcinolone 40 μg or conjugate #10 19 μg
Method: (§1) The efficacy of conjugate #10 was validated to provide a treatment effect that can sufficiently reduce the symptoms of uveitis. Male Lewis rats were divided into 4 groups (n=12 for EAU induced groups and n=8 for uninduced control) and randomized by weight. The groups received either conjugate #10 at 19 μg, triamcinolone (40 μg), or vehicle control. On Day 1, rats in the induced groups were immunized by a subcutaneous injection in each flank with 25 μg of interphotoreceptor retinoid-binding protein (IRBP) peptide R16 in 0.1 mL of complete Freund's adjuvant for 50 μg total. On days 4 and 8, rat eyes were treated bilaterally with a 5 μL intravitreal (ITV) injection of conjugate #10 or vehicle control, or 1 μL ITV injection of triamcinolone based on their assigned treatment. Prior to the start of the study and on days 3, 6, 10, 12 and 14, ocular inflammation was accessed by slit lamp microscopy and assigned a clinical EAU score of 0-4 based on the appearance of inflammation.
On day 14, animals were euthanized and one eye from each animal was dissected into vitreous and aqueous humor to perform for cytokine analysis. After dissection the aqueous humor from each group was pooled and all tissues were flash frozen. A milliplex Rat Cytokine/Chemokine magnetic bead panel (Millipore Cat #RECYMAG65K27PMX) was used to assess the relative cytokine concentrations in the tissues according to the manufacturer's protocol. Briefly, the ocular tissues were thawed on ice and the sample volume was measured. Then, assay buffer was added to the samples to achieve a final volume of 55 μL for duplicate readings and mixed well. Next, 25 μL of samples, standards or controls was added to the assay plate, mixed with 25 μL of beads and incubated at room temperature for 2 hours. The wells were washed on a magnetic plate washer and incubated with 25 μL of detection antibodies for one hour and then 25 μL of Streptavadin-Phycoerythrin for 30 minutes. Wells were washed on a magnetic plate washer and 125 μL of Sheath Fluid Plus was added per well and then read on the Luminex. The amount of cytokine recovered from each sample was normalized to the volume of tissue recovered and plotted.

[2] = tested on: experimental autoimmune uveoretinitis (EAU) in rats; experiment: Second rat EAU model, clinical score by slit lamp, Example 9; format: in vivo, Male Lewis rats; conditions: FIG. 7A, ITV, triamcinolone (40 μg) or conjugate #10 (19 μg), one day after ITV treatment, vs vehicle
Method: as §1

[3] = tested on: TNFα; experiment: Long-term 37° C. stability, change in Kon by BLI; format: physicochemical; conditions: FIG. 4B
Method: (§2) We then used the top performers from the thermal stability experiments in a long-term 37° C. stability studies. The MVPs were synthesized under sterile conditions and diluted to around 0.4 mg/mL in a sterile filtered human vitreous mimetic buffer (see Table 10) or remained in formulation buffer. The samples were either filtered using sterile 0.2 or 5 μm spin filters before use or mixed with 0.010% sodium azide as an anti-microbial agent. Then, several 100-150 μL aliquots of each sample were added to wells of a sterile 96 well plate with one day 0 aliquot reserved at 4° C. The remaining wells were filled with a sterile filtered human vitreous buffer+0.01% sodium azide to minimize evaporation. The plate was incubated in a standard tissue culture incubator at 37° C. with 5% CO2. At discrete timepoints, one aliquot from each sample was removed from the plate under sterile conditions and analyzed. […] Then, the protein concentration was measured to adjust for any differences in volume that may have occurred. […] To monitor changes in radius over time, the samples were spun for 5 minutes at 5000 g to remove any large aggregates or dust particles and the Rh was measured using DLS methods described above except that the instrument is at 37° C. and without any sample dilution.

[4] = molecular target: T1, Human TNFα (Homo sapiens, UniProt P01375); experiment: Biolayer interferometry (BLI) binding kinetics, Human TNFα ligand; conditions: purified conjugate
T1 construct: Avi; His; purchased Acro Biosystems TNA-H82E3

[5] = molecular target: T2, Human TNFα, Avi and His tagged (Acro Biosystems TNA-H82E3) (human, UniProt P01375 77-233); experiment: BLI (Gator), Avi-tagged TNFα on streptavidin probes, conjugate as analyte, 1:1 global fit
T2 construct: Bought BLI ligand, loaded on streptavidin probes through the Avi tag; also called BLI ligand

[6] = tested on: experimental autoimmune uveoretinitis (EAU) in rats; experiment: Rat experimental autoimmune uveoretinitis (EAU) model, Example 8; format: in vivo, Male Lewis rats; conditions: vs vehicle
Method: The efficacy of mu_anti-TNFα_aH_CYS MVPs were validated to provide a treatment effect that can sufficiently reduce the symptoms of uveitis. A rat model of experimental autoimmune uveoretinitis (EAU) was used as a model of chronic posterior uveitis in humans. This model was induced by systemic immunization with the uveitogenic interphotoreceptor retinoid-binding protein (IRBP), and symptoms of uveitis appeared after 9-11 days. Rats were treated intravitreally with 12.5 μg of mu_anti-TNFα_aH_CYS MVP (Conjugate #7). As a positive control, dexamethasone was used.
Male Lewis rats were divided into 4 groups (n=8) and randomized by weight. […] On Day 1, rats were immunized by a subcutaneous injection at the base of the tail and in each thigh with 30 μg of bovine IRBP peptide R16 in 0.2 mL of Freund's adjuvant. On days 8 and 10, rat eyes were treated bilaterally with a 5 μL ITV injection of either dose of their assigned treatment. Prior to the start of the study and on days 7, 9, 11, 14, we assessed ocular inflammation by slit lamp microscopy and assigned a clinical EAU score of 0-4 based on the appearance of inflammation. On day 14, animals were euthanized, one eye from each animal was processed for histopathology, and assigned a score of 0-4 based on the appearance of inflammation and cell infiltration. EAU and histopathology were scored based on published standardized scoring systems.

[7] = Long-term 37° C. stability in vitreous mimetic buffer, radius by DLS; format: physicochemical; conditions: FIG. 4C; after 35 days at 37° C. in vitreous mimetic buffer
Method: as §2

[8] = Hydrodynamic radius by dynamic light scattering (DLS); format: physicochemical; conditions: 25° C.

T1 sequence (P01375 77-233 limits assumed): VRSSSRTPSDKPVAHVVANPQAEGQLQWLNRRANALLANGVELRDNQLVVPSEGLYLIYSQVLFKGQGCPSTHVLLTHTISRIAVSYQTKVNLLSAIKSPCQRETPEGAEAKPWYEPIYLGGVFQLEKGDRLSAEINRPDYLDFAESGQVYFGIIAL
T2 sequence (P01375 77-233 limits assumed): as above

## C[C@]12C=CC(=O)C=C1CC[C@H]1[C@@H]3C[C@@H](O)[C@](O)(C(=O)CO)[C@@]3(C)C[C@H](O)[C@@]12F [Triamcinolone, triamcinolone, reference compound]
[1]
  IFNγ concentration in the vitreous ± SD: 2.540 ± 1.804 ng/mL
  IL-1α concentration in the vitreous ± SD: 1.321 ± 0.844 ng/mL
  IL-1β concentration in the vitreous ± SD: 0.721 ± 0.445 ng/mL
  IL-6 concentration in the vitreous ± SD: 19.936 ± 17.156 ng/mL
  MCP-1 concentration in the vitreous ± SD: 2.705 ± 2.640 ng/mL
  TNFα concentration in the vitreous ± SD: 0.046 ± 0.051 ng/mL
[2]
  Average inflammation score (clinical EAU score, 0=none to 4=severe): decreased inflammation compared to the vehicle control

B1: Conjugate #5: (SEQ ID NO:103, anti-TNFα VHH (mouse)-aH)+HyA (850 kDa) conjugate, MP2H linker, valency 121 (conjugate)
VHH: QVQLQDSGGGLVQAGGSLRLSCAASGGTFSSIIMAWFRQAPGKEREFVGAVSWSGGTTVYADSVLGRFEISRDSARKSVYLQMNSLKFPEDTAVYYCAARPYQKYNWASASYNVWGQGTQVTVSSAEAAAKEAAAKEAAAKAGC
modifications: hyaluronic acid 850 kDa conjugate via MP2H linker; anti-TNFalpha VHH (mouse)- aH
[3]; after 5 days at 37° C.
  change in association constant of TNFα binding: dramatically decreased
[4]
  Kd: ≤ 0.001 nM

B2: (SEQ ID NO:149)+HyA conjugate #12, valency 99 (other)
VHH: QVQLVESGGGLVQPGGSLRLSCAASGGTFSSIIMAWFRQAPGKEREFVGAVSWSGGTTVYADSVKGRFTISRDNSKNTVYLQMNSLRPEDTAVYYCAARPYQKYNWASASYNVWGQGTLVTVSSAEAAAKEAAAKEAAAKAGC
modifications: C-terminal cysteine thiol of the aH peptide linker joined through the MP2H organic linker to hyaluronic acid
[5]
  Kd: ≤ 1 pM

B3: Conjugate #7: (SEQ ID NO:104, anti-TNFα 3MUT VHH (mouse)-aH)+HyA (850 kDa) conjugate, MP2H linker, valency 98 (conjugate)
VHH: QVQLQESGGGLVQAGGSLRLSCAASGGTFSSIIMAWFRQAPGKEREFVGAVSWSGGTTVYADSVKGRFTISRDSARKSVYLQMNSLKPEDTAVYYCAARPYQKYNWASASYNVWGQGTQVTVSSAEAAAKEAAAKEAAAKAGC
modifications: hyaluronic acid 850 kDa conjugate via MP2H linker; anti-TNFalpha 3MUT VHH (mouse)- aH
[6]; FIG. 6A, rat EAU, ITV, or Conjugate #7 (12.5 μg), n=8, one day after ITV treatment
  Average inflammation score (0=none to 4=severe): decreased inflammation compared to the vehicle control
[6]; FIG. 6B, rats sacrificed 14 days after model induction, p<0.05
  Average histology inflammation score (0=none to 4=severe): less inflamed than vehicle treated eyes
[7]
  conjugate size (DLS) as share of the original radius: about 75%
[8]
  Rh (nm, DLS): 76.42 nm
[4]
  Kd: ≤ 0.001 nM

B4: Conjugate #10: (SEQ ID NO:104, anti-TNFα 3MUT VHH (mouse)-aH)+HyA (850 kDa) conjugate, MP2H linker, valency 96.5 (conjugate)
VHH: QVQLQESGGGLVQAGGSLRLSCAASGGTFSSIIMAWFRQAPGKEREFVGAVSWSGGTTVYADSVKGRFTISRDSARKSVYLQMNSLKPEDTAVYYCAARPYQKYNWASASYNVWGQGTQVTVSSAEAAAKEAAAKEAAAKAGC
modifications: hyaluronic acid 850 kDa conjugate, MP2H linker; anti-TNFalpha 3MUT VHH (mouse)- aH
[1]
  IFNγ concentration in the vitreous ± SD: 3.116 ± 1.436 ng/mL
  IL-1α concentration in the vitreous ± SD: 1.511 ± 0.709 ng/mL
  IL-1β concentration in the vitreous ± SD: 0.667 ± 0.271 ng/mL
  IL-6 concentration in the vitreous ± SD: 25.565 ± 15.702 ng/mL
  MCP-1 concentration in the vitreous ± SD: 3.843 ± 2.499 ng/mL
  TNFα concentration in the vitreous ± SD: 0.058 ± 0.038 ng/mL
[8]
  Rh (nm, DLS): 99.14 nm
[2]
  Average inflammation score (clinical EAU score, 0=none to 4=severe): comparable to triamcinolone; also recorded: decreased inflammation compared to the vehicle control
[4]
  Kd: ≤ 0.001 nM

B5: Conjugate #13: (SEQ ID NO:150, Hu aTNFα 5MUT aH_CYS)+hyaluronic acid conjugate, MP2H linker, valency 102 (conjugate)
VHH: QVQLVESGGGLVQPGGSLRLSCAASGGTFSSIIMAWFRQAPGKEREFVAAISWSGGTTVYADSVKGRFTISRDNSKNTVYLQMNSLRPEDTAVYYCAARPYQKYNWASASYNVWGQGTLVTVSSAEAAAKEAAAKEAAAKAGC
modifications: hyaluronic acid conjugate, MP2H linker; Hu_aTNFaMu_5MUT aH_CYS
[8]
  Rh (nm, DLS): 71.64 nm

B6: Conjugate #12: (SEQ ID NO:149, Hu aTNFα 3MUT aH_CYS)+hyaluronic acid conjugate, MP2H linker, valency 99 (conjugate)
VHH: QVQLVESGGGLVQPGGSLRLSCAASGGTFSSIIMAWFRQAPGKEREFVGAVSWSGGTTVYADSVKGRFTISRDNSKNTVYLQMNSLRPEDTAVYYCAARPYQKYNWASASYNVWGQGTLVTVSSAEAAAKEAAAKEAAAKAGC
modifications: hyaluronic acid conjugate, MP2H linker; Hu_aTNFaMu_3MUT aH_CYS
[8]
  Rh (nm, DLS): 70.12 nm

B7: Conjugate #6: (SEQ ID NO:104, anti-TNFα 3MUT VHH (mouse)-aH)+HyA (850 kDa) conjugate, MP2H linker, valency 51 (conjugate)
VHH: QVQLQESGGGLVQAGGSLRLSCAASGGTFSSIIMAWFRQAPGKEREFVGAVSWSGGTTVYADSVKGRFTISRDSARKSVYLQMNSLKPEDTAVYYCAARPYQKYNWASASYNVWGQGTQVTVSSAEAAAKEAAAKEAAAKAGC
modifications: hyaluronic acid 850 kDa conjugate via MP2H linker; anti-TNFalpha 3MUT VHH (mouse)- aH
[3]; after 35 days at 37° C.
  change in association constant of TNFα binding: minimal change
[7]
  conjugate size (DLS) as share of the original radius: about 75%
[8]
  Rh (nm, DLS): 76.8 nm
[4]
  Kd: ≤ 0.001 nM

B8: (SEQ ID NO:150)+HyA conjugate #13, valency 102 (other)
VHH: QVQLVESGGGLVQPGGSLRLSCAASGGTFSSIIMAWFRQAPGKEREFVAAISWSGGTTVYADSVKGRFTISRDNSKNTVYLQMNSLRPEDTAVYYCAARPYQKYNWASASYNVWGQGTLVTVSSAEAAAKEAAAKEAAAKAGC
modifications: C-terminal cysteine thiol of the aH peptide linker joined through the MP2H organic linker to hyaluronic acid
notes: also called Conjugate ID 13
[5]
  Kd: ≤ 1 pM

Reference: patent US20250255972A1, “METHOD OF TREATING UVEITIS WITH MULTIVALENT PROTEIN-HYALURONIC ACID POLYMER CONJUGATE” (Valitor, Inc., priority 2022, published 2025)
